In patent US20180015152:

Assays:
[1] = target: T1, cell permeable human non-Casp1 cleavable Sirt1 polypeptide (NC-Sirt1)
T1 chain: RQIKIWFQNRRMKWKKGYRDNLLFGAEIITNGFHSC

[2] = target: T2, sirtuin 1 (human Sirt1, endogenous in human aortic endothelial cells), Q96EB6
T2 chain: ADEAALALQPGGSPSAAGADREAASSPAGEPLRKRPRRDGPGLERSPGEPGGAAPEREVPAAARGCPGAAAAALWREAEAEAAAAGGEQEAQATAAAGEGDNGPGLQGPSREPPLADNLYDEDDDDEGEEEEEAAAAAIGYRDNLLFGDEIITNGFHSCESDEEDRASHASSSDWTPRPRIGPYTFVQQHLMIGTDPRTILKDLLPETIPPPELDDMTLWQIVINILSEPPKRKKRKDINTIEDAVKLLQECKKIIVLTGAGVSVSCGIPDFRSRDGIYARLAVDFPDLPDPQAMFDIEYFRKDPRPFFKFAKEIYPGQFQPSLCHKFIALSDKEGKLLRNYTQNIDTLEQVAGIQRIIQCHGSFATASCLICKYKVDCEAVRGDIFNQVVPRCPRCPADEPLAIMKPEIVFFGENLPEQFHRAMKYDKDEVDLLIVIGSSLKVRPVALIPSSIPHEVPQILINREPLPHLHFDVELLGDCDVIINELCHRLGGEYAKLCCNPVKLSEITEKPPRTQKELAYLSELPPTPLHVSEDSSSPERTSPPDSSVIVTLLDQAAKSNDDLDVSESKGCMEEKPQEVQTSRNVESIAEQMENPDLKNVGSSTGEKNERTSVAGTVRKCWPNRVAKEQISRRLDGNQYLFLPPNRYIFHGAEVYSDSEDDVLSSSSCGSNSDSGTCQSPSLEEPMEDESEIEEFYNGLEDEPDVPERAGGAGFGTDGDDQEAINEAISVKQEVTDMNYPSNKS

B1: caspase-1 (human, endogenous in human aortic endothelial cells) (protein)
chain: NPAMPTSSGSEGNVKLCSLEEAQRIWKQKSAEIYPIMDKSSRTRLALIICNEEFDSIPRRTGAEVDITGMTMLLQNLGYSVDVKKNLTASDMTTELEAFAHRPEHKTSDSTFLVFMSHGIREGICGKKHSEQVPDILQLNAIFNMLNTKNCPSLKDKPKVIIIQACRGDSPGVVWFKDSVGVSGNLSLPTTEEFEDDAIKKAHIEKDFIAFCSSTPDNVSWRHPTMGSVFIGRLIEHMQEYACSCDVEEIFRKVRFSFEQPDGRAQMPTTERVTLTRCFYLFPGH
[1]
  cleaved-Sirt1 expression by Western blot with anti-Sirt1 antibody in oxLDL-treated HAECs: NC-Sirt1 dose-dependently decreases the cleavage of Sirt1 induced by oxLDL
[2]
  cleaved-Sirt1 expression by Western blot in HAECs treated with oxLDL: oxLDL induced the expression of cleaved-Sirt1 by 2.4-folds in HAECs
